# Laboratory results reported in the supplement of paper PMC7125110.
# ± gives the standard error. This sample holds only a part of the variants without activity.
# B1: glmS ribozyme (parent)
# chain: AUAAAAGCGCCAGAACUACAGAAAUGUAGUUGACGAGGAGGAGGUUUAUCGAAUUUUCGGCGGAUGCCUCCAAA
# Variants of: B1
# Experiment: self-cleavage kobs at 10000 uM GlcN6P; higher = faster cleavage; RNA array
# Details: with glucosamine-6-phosphate
# Method in brief: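 kobs was derived by fitting per-tile medians to one- or two-exponential decays after normalising signals to baseline and to non-cleaving reference variants. Those signals came from barcoded ribozyme variants transcribed in situ by E. coli RNA polymerase on sequenced MiSeq chips, followed through a hybridised Cy3 probe at 37 °C and imaged over ~14 h. Glucosamine-6-phosphate (40 μM to 10 mM) in HEPES/KCl/Mg(OAc)2 buffer was flowed in. Weighted Michaelis–Menten fits across concentrations then gave kcat and KM.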
row,Variant,self-cleavage kobs at 10000 uM GlcN6P [s⁻¹]
1,C11U U47A U69A,4.5e-05 ± 1.5e-05
2,G13A A36C G38U,< 1e-05
3,A33C A39G U69G,< 1e-05
4,U30G G35U G43C,< 1e-05
5,U31A C58U,4.45e-05 ± 6.1e-06
6,C11U C34G G51A A52U C68G,0.000563 ± 0.00022
7,A12C G32A G38A,< 1e-05
8,C16G C50A U56C U69G,< 1e-05
9,U31C G40U G66A,0.00025 ± 7.4e-05
10,G32U G41A A53G,0.000262 ± 6.5e-05
11,C11A A48G C50A C70A,5.38e-05 ± 1.9e-05
12,A14G U49G U55C,0.00199 ± 0.00057
13,C11G A36C G37C U46G G60A,< 1e-05
14,U30C A36U G44U C67G,< 1e-05
15,C16A U31C G41C C68A,< 1e-05
16,C11A G13U A53G C67U C68G,3.78e-05 ± 1.7e-05
17,C16A G43A G44A A48U,< 1e-05
18,A15G C16U U47C U65A U69C,6.04e-05 ± 2.9e-05
19,C19A G43C U47G,< 1e-05
20,A14U G40A U54A,0.000245 ± 8.4e-05
21,C34A G63U C70A,< 1e-05
22,C16G A36C C58U C70G,4.92e-05 ± 2.2e-05
23,A15G G29A G32A A64G,0.000605 ± 0.00015
24,A36U G59U G60C,< 1e-05

row,Variant,self-cleavage kobs at 10000 uM GlcN6P [s⁻¹]
1,A14C U55A C71U,0.00514 ± 0.0013
2,A36G G37C A42C A48C U65G,< 1e-05
3,C19U C68U,0.00423 ± 0.0011
4,A33U U45A U46G,0.000433 ± 5.7e-05
5,G32U U55A C58G,0.000755 ± 0.00011
6,A14U U46G A53G,0.000633 ± 9.6e-05
7,A12C G62U C71U,< 1e-05
8,U31G A36U C67A C68G,6.42e-05 ± 1.5e-05
9,A14C G35C G38U C61U G63U U65A C71G,< 1e-05
10,A12U G44U A52G,4.49e-05 ± 1.9e-05
11,G29U U54A C71U,0.00223 ± 0.00064
12,C11A A15G U57A G62U,< 1e-05
13,C16G C50G A52C U55A C70U,4.88e-05 ± 1.9e-05
14,G32U G43U U69C,< 1e-05
15,A33C G43A G44C C61A C67U,< 1e-05
16,G13U G38C G62A,< 1e-05
17,A36C G41U C50G G60U C61G,< 1e-05
18,A14C G40U U56G,0.00853 ± 0.0032
19,U30A C67G C71G,< 1e-05
20,G35A U49G C61U,< 1e-05
21,C11U G38U C50A,< 1e-05
22,G29U A39C G40A G66A,6.36e-05 ± 1.3e-05
23,G13U A36U G44U,< 1e-05
24,G32U A52G C70A,8.27e-05 ± 2.1e-05

row,Variant,self-cleavage kobs at 10000 uM GlcN6P [s⁻¹]
1,U31A G32A G62U,< 1e-05
2,A12C A14G U54A,0.0236 ± 0.0056
3,A15U C16A A39U,0.000273 ± 6.1e-05
4,C16A U30C A53C C70G,< 1e-05
5,A15U A39G U57C,6.65e-05 ± 1.8e-05
6,C11G G29U C34A A36U G37U G44C C68U,< 1e-05
7,A33U G35C C71G,< 1e-05
8,G37A G44A,2.6e-05 ± 1.2e-05
9,U30A A42G U46A,0.000409 ± 9.1e-05
10,A12C U31C G43U G44U,< 1e-05
11,G13U A39G G63C,< 1e-05
12,A14C U57A C67A,3.08e-05 ± 1.4e-05
13,G32U A53G U65A,5.88e-05 ± 1.9e-05
14,A15G A33G G59U,< 1e-05
15,C16A G29U U45G,0.0036 ± 0.00061
16,U30C G32C G40A,6.96e-05 ± 1.4e-05
17,A33C A52G U54A,< 1e-05
18,A36C U56C,< 1e-05
19,A14U A48C U55A,3.3e-05 ± 1.5e-05
20,G32A A42G A53G,0.00295 ± 0.00072
21,A15C C16A G37U G40U G62U C70A,< 1e-05
22,U31C U57C,5.52e-05 ± 1.3e-05
23,A12U U31G U55C U65A,0.0008 ± 0.00013
24,U30A G38C,< 1e-05

row,Variant,self-cleavage kobs at 10000 uM GlcN6P [s⁻¹]
1,A12G G63C C70U,< 1e-05
2,A12U A42G C58G,0.00079 ± 0.00015
3,G29C U45A U46A A52U,3.37e-05 ± 1.4e-05
4,C34A G66U C67G,< 1e-05
5,A33U G40C U56A G60C C71U,< 1e-05
6,A15G A52G C71U,0.00137 ± 0.00021
7,G13C A42G U65C,< 1e-05
8,G37A U45A C61U C67U,< 1e-05
9,A33U A39C A48C,< 1e-05
10,A14U U30G U31C,0.000695 ± 0.00016
11,A14U A36G A64G C70G,< 1e-05
12,A14C A36G G51U,< 1e-05
13,C11G G29A G41U C50G U56G C67U,< 1e-05
14,G13U G37C G43C,< 1e-05
15,A15U G43A A64U C68G,< 1e-05
16,G13C C67U C68G,< 1e-05
17,A12U A42U C70U,0.00014 ± 3.1e-05
18,A33U A42C U49A C58G C61G,< 1e-05
19,U30G A39C U56A C70G,< 1e-05
20,A15G G44U C58U C67A,2.9e-05 ± 1.2e-05
21,G32U U57A,6.86e-05 ± 8.1e-06
22,A33G A42C U47C G60A,< 1e-05
23,C11A C58A G59A,6.59e-05 ± 1.3e-05
24,A12G A14U C58A,0.000276 ± 5.2e-05

row,Variant,self-cleavage kobs at 10000 uM GlcN6P [s⁻¹]
1,C11A A53C,2.2e-05 ± 1.1e-05
2,A12U G41A U54C,0.000963 ± 0.00021
3,A36C A39U C67U,< 1e-05
4,C16A U30G C34U,< 1e-05
5,A33G A48C,< 1e-05
6,C11U G29U G40U G62U,< 1e-05
7,U31G U54C C70G,0.000117 ± 2.3e-05
8,G37A U54A G66U,0.000359 ± 8.7e-05
9,C16U G32A U57C,2.6e-05 ± 1.3e-05
10,A36U A42U C61U,< 1e-05
11,U30C G40A U56A G62C,< 1e-05
12,A12U A14G U57A,0.000643 ± 0.00011
13,G35U U47C G51U,< 1e-05
14,G29U G60A C61A,< 1e-05
15,G13C C71A,4.74e-05 ± 1.4e-05
16,A12G A14C A15G,0.000141 ± 3e-05
17,A15G A53U U69G,5.88e-05 ± 1.8e-05
18,C16A U31A C71G,4.01e-05 ± 1.1e-05
19,C11A U30A C70G,5.91e-05 ± 1.5e-05
20,A15C A42G U47G A53G,0.000696 ± 9.1e-05
21,G29U U56C,0.000483 ± 0.00016
22,C11U U31G U49A G62A,< 1e-05
23,A15U C50U C61G A64G,< 1e-05
24,C11U A48G C50U C71U,< 1e-05

row,Variant,self-cleavage kobs at 10000 uM GlcN6P [s⁻¹]
1,A36C G38U A39C G62U,< 1e-05
2,A15U C58U G59U,< 1e-05
3,C10U U49G C58G,< 1e-05
4,C16A U31G C67U,6.54e-05 ± 1.4e-05
5,U30C U31G A33G U69G,< 1e-05
6,A12G A39C G66U,6.62e-05 ± 1.8e-05
7,A12C G29U U69G,3.54e-05 ± 1.6e-05
8,G13U C16U A53U G62U,< 1e-05
9,C11A U55A U56C,2.5e-05 ± 1.1e-05
10,A14C U30G A33G G37A C68G,< 1e-05
11,G13A G32C U69G,5.76e-05 ± 2.1e-05
12,G13U G44U U45G C58A C71G,< 1e-05
13,A14C G44C A52C U65A,< 1e-05
14,A12G C58A C70G,3.02e-05 ± 1.3e-05
15,A33U G41C A52U A53C,< 1e-05
16,A33C C50A C67G C68G,7.88e-05 ± 2.1e-05
17,G13U C34U G63U,< 1e-05
18,A12U C16A G35A A42C G59U C71U,< 1e-05
19,A14U G32U U46C,4.16e-05 ± 1.4e-05
20,A15G G32U G43U C61G G63U A64G G66A,< 1e-05
21,A14U A52C U57A C71U,< 1e-05
22,A14G A39G G44C C68U,3.6e-05 ± 1.5e-05
23,G32C A48C U55C G59A G63A,< 1e-05
24,C16U G37A U65G,0.000183 ± 3.8e-05

row,Variant,self-cleavage kobs at 10000 uM GlcN6P [s⁻¹]
1,C11U U57C,5.06e-05 ± 1.6e-05
2,A15G U46G C67G,0.000339 ± 6e-05
3,A14G C34G G44U A52C C58A G59A G63U C71G,< 1e-05
4,G13C U55G C58G,4.29e-05 ± 1.4e-05
5,C16G U45C C67G,0.000811 ± 0.00018
6,G32A A52G C70U,0.000145 ± 1.9e-05
7,A14U A42U U57C,< 1e-05
8,A15C G44A A53G,5.76e-05 ± 1.5e-05
9,G35C G44A U46G,< 1e-05
10,C34A A42C U65A,< 1e-05
11,G37U G44U G60U,< 1e-05
12,G29U A53C G60A,< 1e-05
13,G13U U30A C58U G59U,< 1e-05
14,U30C G66A C71U,0.000123 ± 2.3e-05
15,G13U U46C,3.18e-05 ± 1.1e-05
16,A14G U31G C67U,0.00162 ± 0.00041
17,G32A G40A C68G,< 1e-05
18,A15U G38U U57C C61U,< 1e-05
19,C16G G32C G43U U47G U56A,< 1e-05
20,G35C C50G A53C,3.34e-05 ± 8.6e-06
21,C11U A12G A14U,0.000156 ± 3.3e-05
22,U31G A53G U69C,0.00324 ± 0.00093
23,A12G G40A U55C,9.22e-05 ± 2e-05
